Four molecules from US20220054646A1 (Bicycle, published 2022) can be followed below.

*1 amine or outer side, *2 acyl side, *3 side chain or, on linkers, in order; H or OH if unused. Bridges are numbered along the chain shown (N, C = ends). Where no end group is shown, it is not given here. TBMB = c1c(C[*:1])cc(C[*:3])cc1C[*:2]

The target in experiment [1] is T1, Prostate-specific membrane antigen (PSMA) (human, UniProt Q04609 44-750, limits assumed).
T1 construct: the construct used in the fluorescence polarization and enzyme assays is not described (methods cited from Shen et al 2013 and WO 2009/070302); also called Glutamate carboxypeptidase II; GCPII
Briefly: fluorescence polarization assay, FP(h), PSMA. On the procedure: PSMA binding was measured using the fluorescence polarization assay methodology described in Shen et al (2013) PLOS ONE 8(7), e68339 and PSMA enzyme inhibition was measured using the methodology described in WO 2009/070302.

For experiment [2], the target named is T1, Prostate-specific membrane antigen …. Kind of experiment: cell-based or functional assay.

T1 sequence (Q04609 44-750 limits assumed): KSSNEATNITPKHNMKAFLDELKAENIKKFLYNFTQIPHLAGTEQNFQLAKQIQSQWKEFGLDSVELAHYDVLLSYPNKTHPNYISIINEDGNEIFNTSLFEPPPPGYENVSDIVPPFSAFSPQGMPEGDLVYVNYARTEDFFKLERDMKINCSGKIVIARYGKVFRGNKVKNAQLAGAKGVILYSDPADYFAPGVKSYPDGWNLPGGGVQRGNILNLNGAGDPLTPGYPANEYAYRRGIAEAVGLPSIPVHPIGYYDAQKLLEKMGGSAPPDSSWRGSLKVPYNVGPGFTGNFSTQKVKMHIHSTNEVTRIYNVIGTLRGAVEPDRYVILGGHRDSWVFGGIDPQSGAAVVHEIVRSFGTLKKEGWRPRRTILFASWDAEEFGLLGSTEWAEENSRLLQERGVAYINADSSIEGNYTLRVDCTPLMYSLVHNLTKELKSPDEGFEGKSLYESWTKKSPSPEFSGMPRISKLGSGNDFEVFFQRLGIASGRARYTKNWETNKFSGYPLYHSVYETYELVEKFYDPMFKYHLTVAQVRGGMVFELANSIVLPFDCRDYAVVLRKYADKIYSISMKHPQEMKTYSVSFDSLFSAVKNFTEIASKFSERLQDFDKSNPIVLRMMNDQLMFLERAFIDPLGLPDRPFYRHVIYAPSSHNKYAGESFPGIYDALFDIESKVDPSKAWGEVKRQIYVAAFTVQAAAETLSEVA

B1: 21-31-04-T01-N007 (peptide)
peptide: EVCWDCFMMEDGTCAXXXXXXK
modifications: not fully specified; N-terminal acetyl (Ac); D-residue at the N-terminus (printed (D-E) / (D-Gln)); Sar6 = six sarcosine residues; C-terminal D-Lys; Ci, Cii and Ciii cyclised with TBMB (tri-substituted 1,3,5-trismethylbenzene scaffold)
notes: Bicyclic peptide on TBMB scaffold
Broadly, the Ki is the dissociation constant of the complex between target and ligand, obtained from inhibition or displacement. In experiment [1], B1 displayed an inhibition constant (Ki) of 30 nM.

ACMVCHMMEDGTCA (linker 2-5-13 via TBMB (inferred), Bicyclic peptide on TBMB scaffold) [21-31-N002] returned a Ki in experiment [1] of 40 nM. For the same molecule, in experiment [2], the “Enzyme inhibition IC50” value came to 695 nM.

FCSECYMMEDGTCA (linker 2-5-13 via TBMB (inferred), Bicyclic peptide on TBMB scaffold) [21-31-11-T01-N001]: the Ki in experiment [1] stood at 6 nM. In other words, the single-digit nanomolar range.

The molecule CIECYIMEDGTCA (linker 1-4-12 via TBMB (inferred), Bicyclic peptide on TBMB scaffold) [21-31-01-N001] returned a Ki in experiment [1] of 70 nM.
